{"source": "patent US20250092148A1", "about": "(Kyowa Kirin, published 2025)", "assay_in_all_cases": "flow cytometry, Fab 0.25 µg/mL on HEK-293T cells expressing the mutant", "key": {"human CD116 D250A": {"target": "T1, human CD116 D250A (human, UniProt P15509 23-400)", "T1 construct": "whole, on cells", "T1 sequence (looked up)": "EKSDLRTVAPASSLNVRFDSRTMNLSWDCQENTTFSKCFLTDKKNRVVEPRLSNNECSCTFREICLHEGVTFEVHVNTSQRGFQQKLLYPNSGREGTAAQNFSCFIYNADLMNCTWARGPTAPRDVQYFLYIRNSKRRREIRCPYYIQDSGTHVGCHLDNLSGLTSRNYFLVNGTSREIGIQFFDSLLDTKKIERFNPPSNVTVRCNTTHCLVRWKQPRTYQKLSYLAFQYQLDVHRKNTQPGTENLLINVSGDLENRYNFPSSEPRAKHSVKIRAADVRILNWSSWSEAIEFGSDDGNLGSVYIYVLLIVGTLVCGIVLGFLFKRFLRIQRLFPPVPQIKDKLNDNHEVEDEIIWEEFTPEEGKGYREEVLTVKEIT"}, "human CD116 K213A": {"target": "T2, human CD116 K213A (human, UniProt P15509 23-400)", "T2 construct": "whole, on cells", "T2 sequence (looked up)": "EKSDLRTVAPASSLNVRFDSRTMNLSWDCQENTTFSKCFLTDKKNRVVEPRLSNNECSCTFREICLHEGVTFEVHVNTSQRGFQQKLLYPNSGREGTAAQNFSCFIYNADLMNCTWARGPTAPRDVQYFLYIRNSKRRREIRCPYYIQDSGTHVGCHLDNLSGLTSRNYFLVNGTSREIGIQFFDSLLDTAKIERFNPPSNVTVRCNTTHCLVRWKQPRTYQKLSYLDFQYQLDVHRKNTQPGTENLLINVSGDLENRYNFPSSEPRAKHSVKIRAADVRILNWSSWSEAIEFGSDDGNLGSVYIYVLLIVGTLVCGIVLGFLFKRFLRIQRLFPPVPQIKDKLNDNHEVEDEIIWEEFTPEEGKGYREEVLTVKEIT"}, "human CD116 F251A": {"target": "T3, human CD116 F251A (human, UniProt P15509 23-400)", "T3 construct": "whole, on cells", "T3 sequence (looked up)": "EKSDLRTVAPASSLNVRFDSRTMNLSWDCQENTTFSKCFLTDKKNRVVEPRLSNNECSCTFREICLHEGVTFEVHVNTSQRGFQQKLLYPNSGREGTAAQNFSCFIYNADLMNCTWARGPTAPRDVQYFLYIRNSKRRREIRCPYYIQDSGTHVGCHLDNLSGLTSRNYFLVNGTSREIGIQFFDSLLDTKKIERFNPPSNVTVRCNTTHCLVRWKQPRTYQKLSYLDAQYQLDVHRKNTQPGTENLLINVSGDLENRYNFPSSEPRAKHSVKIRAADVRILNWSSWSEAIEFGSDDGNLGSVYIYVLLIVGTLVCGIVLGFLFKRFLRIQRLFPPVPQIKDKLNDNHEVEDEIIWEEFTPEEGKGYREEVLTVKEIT"}, "human CD116 N156A": {"target": "T4, human CD116 N156A (human, UniProt P15509 23-400)", "T4 construct": "whole, on cells", "T4 sequence (looked up)": "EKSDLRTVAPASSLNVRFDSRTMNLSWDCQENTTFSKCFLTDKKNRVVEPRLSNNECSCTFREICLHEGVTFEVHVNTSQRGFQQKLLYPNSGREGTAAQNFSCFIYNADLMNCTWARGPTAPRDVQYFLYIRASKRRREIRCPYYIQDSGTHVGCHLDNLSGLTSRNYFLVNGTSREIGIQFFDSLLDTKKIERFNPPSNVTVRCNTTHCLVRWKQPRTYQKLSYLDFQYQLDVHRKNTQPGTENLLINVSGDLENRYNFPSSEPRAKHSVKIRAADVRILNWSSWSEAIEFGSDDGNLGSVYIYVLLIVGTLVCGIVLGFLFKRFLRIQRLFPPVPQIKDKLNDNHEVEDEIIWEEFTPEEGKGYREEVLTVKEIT"}, "human CD116 R302A": {"target": "T5, human CD116 R302A (human, UniProt P15509 23-400)", "T5 construct": "whole, on cells", "T5 sequence (looked up)": "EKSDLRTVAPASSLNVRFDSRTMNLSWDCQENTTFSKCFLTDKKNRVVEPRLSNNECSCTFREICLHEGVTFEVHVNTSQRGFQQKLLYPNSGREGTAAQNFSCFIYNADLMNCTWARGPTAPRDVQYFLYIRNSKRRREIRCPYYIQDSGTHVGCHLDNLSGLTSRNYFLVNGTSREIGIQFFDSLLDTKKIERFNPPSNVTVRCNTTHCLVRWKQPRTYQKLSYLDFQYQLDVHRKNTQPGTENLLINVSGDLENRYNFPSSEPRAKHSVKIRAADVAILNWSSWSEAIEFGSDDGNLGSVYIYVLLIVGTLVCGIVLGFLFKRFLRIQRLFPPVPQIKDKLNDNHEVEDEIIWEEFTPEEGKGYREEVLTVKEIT"}, "human CD116 D300A": {"target": "T6, human CD116 D300A (human, UniProt P15509 23-400)", "T6 construct": "whole, on cells", "T6 sequence (looked up)": "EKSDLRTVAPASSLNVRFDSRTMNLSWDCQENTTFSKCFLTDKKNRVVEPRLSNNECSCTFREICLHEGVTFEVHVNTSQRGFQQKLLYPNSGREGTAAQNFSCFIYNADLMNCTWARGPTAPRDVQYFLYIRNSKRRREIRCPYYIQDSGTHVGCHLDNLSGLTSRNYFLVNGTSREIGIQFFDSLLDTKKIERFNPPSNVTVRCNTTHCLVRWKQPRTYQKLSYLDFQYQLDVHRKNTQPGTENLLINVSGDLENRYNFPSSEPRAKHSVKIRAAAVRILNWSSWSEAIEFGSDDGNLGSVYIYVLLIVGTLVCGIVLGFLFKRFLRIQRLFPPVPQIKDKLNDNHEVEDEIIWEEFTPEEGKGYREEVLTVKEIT"}}}
{"binder": "anti-CD116 antibody 116-408, Fab (Fab, V domains shown) VH: EVQLVQSGAEVKKPGASVKVSCKVSGYTLTDLSMHWVRQAPGKGLEWMGGFDPEDGERIYAQKFQGRVTMTEDTSTDTAYMELSSLRSEDTAVYYCATGLFYYYYGMDVWGQGTMVTVSS VL: not shown", "values": [{"measurement": "Binding Reactivity (% WT)", "setting": "human CD116 D250A", "result": 95.8, "unit": "% WT"}, {"measurement": "Binding Reactivity (% WT)", "setting": "human CD116 K213A", "result": 98.4, "unit": "% WT"}, {"measurement": "Binding Reactivity (% WT)", "setting": "human CD116 F251A", "result": 99.3, "unit": "% WT"}, {"measurement": "Binding Reactivity (% WT)", "setting": "human CD116 N156A", "result": 5.8, "unit": "% WT"}, {"measurement": "Binding Reactivity (% WT)", "setting": "human CD116 R302A", "result": 93.8, "unit": "% WT"}, {"measurement": "Binding Reactivity (% WT)", "setting": "human CD116 D300A", "result": 84.8, "unit": "% WT"}]}
